Among the data in article PMC4366370, “Overexpression of a Novel Thermostable and Chloride-Tolerant Laccase from Thermus thermophilus SG0.5JP17-16 in Pichia pastoris and Its Application in Synthetic Dye Decolorization” (PLoS ONE, 2015) are Km, kcat and kcat/Km values, retold here.

Data set [1] relates to COc1cc(C=NN=Cc2cc(OC)c(O)c(OC)c2)cc(OC)c1O. Kind of data set: purified protein. As to conditions: optimal pH 6.0, 90°C.
The next data set relates to COc1ccccc1O. Kind of data set: purified protein. The note with it: optimal pH 7.5, 90°C.

In general, Km refers to the substrate concentration at which the rate is half of its maximum. A word on the kcat: it is the maximal rate divided by the concentration of active sites. The kcat/Km is the turnover number divided by the Michaelis constant.

Turning to “LacTT (Thermus thermophilus SG0.5JP17-16)”, in data set [1], the Km is 27.0 ± 1.5 µM, the kcat came out at 1 ± 0.061 s⁻¹ and the catalytic efficiency (kcat/Km) turned out to be 37000 ± 2700 M⁻¹ s⁻¹. Moreover, in the data set with COc1ccccc1O, the Km stood at 363.3 ± 29.1 µM, the kcat was found to be 4.34 ± 0.216 s⁻¹ and the kcat/Km is 12000 ± 1000 M⁻¹ s⁻¹.
